From patent US9168297B2, “Regulation of skin pigmentation by neuregulin-1 (NRG-1)” (The United States of America, as Represented by the …, priority 2010, dated 2015) come the findings set out here.

For this assay, the system named is MelanoDerm 3-D reconstructed human skin. In words: Pigmentation of 3-D reconstructed skin (MelanoDerm), L value and microscopy. The class given is cell-based. The settings on record: for ΔL (pigmentation, L value): day 9, vs vehicle. As for the experimental part:
Light, Medium, and Dark human epidermal equivalents (MelanoDerm®) were purchased from MatTek Corp. (Ashland, Mass.). MelanoDerms were grown at the air/liquid interface of the maintenance medium MEL-LLMM (MatTek Corp.), and the culture medium was renewed every 2 days. Where noted, MelanoDerms were treated for 9 days with 50 ng/ml NRG-1 (rhNRG-1-β1, R&D Systems, Minneapolis, Minn.) prepared in phosphate-buffered saline (PBS) with 0.1% bovine serum albumin (BSA) and MelanoDerm maintenance medium. The same concentrations of PBS and BSA were used for mock-treated controls.
For the studies where the MelanoDerms were treated with NRG-1 and/or various pan-ERBB inhibitors, Dark MelanoDerms were first incubated with a pan-ERBB inhibitor (0.5 μM Compound 39, EMD Chemicals, Gibbistown, N.J. or 2 μM CI-1033, Selleck Chemicals LLC, US) for 30 minutes or with vehicle (DMSO) only before treatment with 50 ng/ml NRG-1; identical amounts of DMSO (0.02%) were added to all samples. Treatment was renewed every 2 days in fresh medium and was continued for 9 days.
Three dimensional (3-D) reconstructed human skin models (termed MelanoDerms) were used to test the effects of NRG-1 on skin pigmentation. Three types of MelanoDerm, ‘light’ ([…]), ‘medium’ ([…]) and ‘dark’ ([…]), were used to compare the effects of NRG-1 on those three types of skin. In preliminary studies to optimize the concentration of NRG-1 (from 10 to 200 ng/ml were tested, FIG. 10), 50 ng/ml was chosen which was consistent with concentrations of NRG-1 used for other cell types by other groups. NRG-1 was added to the MelanoDerm media at 50 ng/ml and the medium was replenished every 2 days. On day 9, the MelanoDerms treated with NRG-1 were compared to controls treated only with vehicle. Pigmentation of the skin was assessed using the L value, higher L values indicating lighter colors. […] It should be noted that relatively small changes in ΔL can represent relatively large changes in visible skin color. For example, the mean L value of White/Caucasian skin is 67, that of Asians, Pacific-Islanders is 65, that of Hispanic/Latinos is 64, and that of American Indian/Alaska Native is 62. […] In the vehicle-treated control MelanoDerms, melanin pigment was more evenly distributed throughout the entire epidermis and no visible melanin accumulation was observed around melanocytes (FIG. 3B). […] Therefore, NRG-1 leads to visible increases in pigmentation in the MelanoDerms which was greater as the skin had more constitutive pigmentation.

B1: NRG-1: commercially available recombinant human neuregulin-1 (rhNRG-1-β1, R&D Systems), SEQ ID NO: 11 (protein)
chain: TSHLVKCAEKEKTFCVNGGECFMVKDLSNPSRYLCKCPNEFTGDRCQNYVMASFYKHLGIEFMEAEELYQK
Take B1: the “Melanocyte growth in MelanoDerm skin model” value (MelanoDerm, NRG-1) is on record as “did not increase melanocyte growth”. The “Melanocyte morphology, bright field microscopy” value (MelanoDerms, NRG-1 50 ng/ml, vs vehicle-treated control) is “more abundant cytoplasm with thicker dendrites”. Besides, the “ΔL (pigmentation, L value)” value reads like this: (dark MelanoDerms, NRG-1 50 ng/ml) −3; (light MelanoDerms, NRG-1 50 ng/ml) −1; (medium MelanoDerms (Asian skin), NRG-1 50 ng/ml) −2.
